Results as given in article PMC7334588.

Biological target: RSC chromatin remodeling complex (S. cerevisiae) (UniProt P32597)
Assay: BLI

Sequence of UniProt P32597 (P32597 whole entry, looked up, one chain of several): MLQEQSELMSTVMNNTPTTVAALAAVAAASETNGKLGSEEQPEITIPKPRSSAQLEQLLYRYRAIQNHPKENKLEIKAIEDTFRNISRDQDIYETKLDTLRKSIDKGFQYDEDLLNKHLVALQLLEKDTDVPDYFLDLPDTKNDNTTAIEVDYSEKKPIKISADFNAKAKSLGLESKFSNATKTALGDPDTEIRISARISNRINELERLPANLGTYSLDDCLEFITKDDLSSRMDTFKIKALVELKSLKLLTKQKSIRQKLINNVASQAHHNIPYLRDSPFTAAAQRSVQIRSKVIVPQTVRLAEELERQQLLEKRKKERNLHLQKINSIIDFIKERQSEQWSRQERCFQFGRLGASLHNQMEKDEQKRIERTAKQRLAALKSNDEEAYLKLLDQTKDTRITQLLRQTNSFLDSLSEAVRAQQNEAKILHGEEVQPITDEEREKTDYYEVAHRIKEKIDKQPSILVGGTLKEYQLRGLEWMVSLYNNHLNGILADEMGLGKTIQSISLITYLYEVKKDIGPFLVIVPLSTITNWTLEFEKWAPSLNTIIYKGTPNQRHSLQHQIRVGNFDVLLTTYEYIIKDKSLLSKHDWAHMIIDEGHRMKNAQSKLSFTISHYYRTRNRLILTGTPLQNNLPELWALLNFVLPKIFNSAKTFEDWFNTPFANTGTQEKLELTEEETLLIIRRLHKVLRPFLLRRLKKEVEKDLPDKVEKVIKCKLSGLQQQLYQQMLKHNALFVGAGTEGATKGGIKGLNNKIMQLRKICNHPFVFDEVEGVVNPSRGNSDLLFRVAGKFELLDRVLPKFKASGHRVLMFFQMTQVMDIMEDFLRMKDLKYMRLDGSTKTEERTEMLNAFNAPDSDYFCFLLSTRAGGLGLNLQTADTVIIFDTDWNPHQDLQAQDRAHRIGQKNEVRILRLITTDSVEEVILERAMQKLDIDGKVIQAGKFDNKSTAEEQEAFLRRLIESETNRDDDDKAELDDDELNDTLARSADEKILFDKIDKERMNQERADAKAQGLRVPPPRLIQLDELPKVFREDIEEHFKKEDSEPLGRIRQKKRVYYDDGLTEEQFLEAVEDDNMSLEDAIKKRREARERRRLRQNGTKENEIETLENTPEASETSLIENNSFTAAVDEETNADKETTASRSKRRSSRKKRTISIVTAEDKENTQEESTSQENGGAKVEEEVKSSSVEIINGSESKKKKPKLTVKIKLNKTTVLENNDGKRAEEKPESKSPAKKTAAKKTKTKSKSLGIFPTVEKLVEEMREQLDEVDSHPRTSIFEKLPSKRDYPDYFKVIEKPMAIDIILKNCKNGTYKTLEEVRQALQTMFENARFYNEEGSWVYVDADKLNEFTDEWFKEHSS

- fold higher affinity than for unmodified nucleosomes: 2 fold
Substance: SUMOylated nucleosome with an in-frame fusion of SUMO to H2B (from UniProt P02281 6-126) (complex)
